# Source: publication PMC5554458 (Cellular signalling, 2017)
# B1: bovine rod Pγ (natural protein, UniProt P04972 1-87, looked up)
# chain: MNLEPPKAEIRSATRVMGGPVTPRKGPPKFKQRQTRQFKSKPPKKGVQGFGDDIPGMEGLGTDITVICPWEAFNHLELHELAQYGII
# How the values were obtained:
# Test in all cases: inhibition of enzyme activity
# [1] = target: PDE6C-Y323N (human, UniProt P51160 1-858, Y323N)
# [2] = target: PDE6C-H262N (human, UniProt P51160 1-858, H262N)
# [3] = target: PDE6C-L858V (human, UniProt P51160 1-858, L858V, farnesyl on the Cys of the C-terminal CAAX box (farnesylated PDE6C-L858V))
# PDE6C-L858V, sequence (P51160 whole entry L858V): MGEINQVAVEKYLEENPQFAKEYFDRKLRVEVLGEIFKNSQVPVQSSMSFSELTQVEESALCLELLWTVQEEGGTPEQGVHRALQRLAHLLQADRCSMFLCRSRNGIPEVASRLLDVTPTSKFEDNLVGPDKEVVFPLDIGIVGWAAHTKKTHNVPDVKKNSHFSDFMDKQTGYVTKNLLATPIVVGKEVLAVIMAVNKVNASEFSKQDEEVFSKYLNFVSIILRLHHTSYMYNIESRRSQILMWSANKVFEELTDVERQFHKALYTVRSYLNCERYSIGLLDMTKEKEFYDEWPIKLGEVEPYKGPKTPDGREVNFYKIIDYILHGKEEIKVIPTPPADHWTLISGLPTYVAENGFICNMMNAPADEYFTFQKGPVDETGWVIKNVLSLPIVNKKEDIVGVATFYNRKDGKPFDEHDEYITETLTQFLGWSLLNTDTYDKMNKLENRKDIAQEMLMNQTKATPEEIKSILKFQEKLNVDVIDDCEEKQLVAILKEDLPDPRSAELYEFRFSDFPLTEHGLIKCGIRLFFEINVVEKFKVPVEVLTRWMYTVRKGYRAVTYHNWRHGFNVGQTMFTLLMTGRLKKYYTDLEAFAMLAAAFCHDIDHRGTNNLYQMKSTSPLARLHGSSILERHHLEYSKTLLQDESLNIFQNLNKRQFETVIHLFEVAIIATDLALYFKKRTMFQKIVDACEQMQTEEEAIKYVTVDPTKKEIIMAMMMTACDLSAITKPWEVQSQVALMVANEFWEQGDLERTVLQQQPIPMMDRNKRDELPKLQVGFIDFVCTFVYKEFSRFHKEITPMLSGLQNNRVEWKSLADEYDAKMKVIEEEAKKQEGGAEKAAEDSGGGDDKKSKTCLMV
# PDE6C-Y323N, sequence (P51160 whole entry Y323N): as the sequence (P51160 whole entry L858V) above, with Y323N, V858L counted along it
# PDE6C-H262N, sequence (P51160 whole entry H262N): as the sequence (P51160 whole entry L858V) above, with H262N, V858L counted along it
binder,measurement,setting,value
B1,Ki,[1],0.176 nM
same,Ki,[2],0.222 nM
same,Ki,[3],0.114 nM
